To fix the notation:
B1: Protein LDOC1 (Homo sapiens), O95751 (parent)
chain: MVDELVLLLHALLMRHRALSIENSQLMEQLRLLVCERASLLRQVRPPSCPVPFPETFNGESSRLPEFIVQTASYMLVNENRFCNDAMKVAFLISLLTGEAEEWVVPYIEMDSPILGDYRAFLDEMKQCFGWDDDEDDDDEEEEDDY
partner: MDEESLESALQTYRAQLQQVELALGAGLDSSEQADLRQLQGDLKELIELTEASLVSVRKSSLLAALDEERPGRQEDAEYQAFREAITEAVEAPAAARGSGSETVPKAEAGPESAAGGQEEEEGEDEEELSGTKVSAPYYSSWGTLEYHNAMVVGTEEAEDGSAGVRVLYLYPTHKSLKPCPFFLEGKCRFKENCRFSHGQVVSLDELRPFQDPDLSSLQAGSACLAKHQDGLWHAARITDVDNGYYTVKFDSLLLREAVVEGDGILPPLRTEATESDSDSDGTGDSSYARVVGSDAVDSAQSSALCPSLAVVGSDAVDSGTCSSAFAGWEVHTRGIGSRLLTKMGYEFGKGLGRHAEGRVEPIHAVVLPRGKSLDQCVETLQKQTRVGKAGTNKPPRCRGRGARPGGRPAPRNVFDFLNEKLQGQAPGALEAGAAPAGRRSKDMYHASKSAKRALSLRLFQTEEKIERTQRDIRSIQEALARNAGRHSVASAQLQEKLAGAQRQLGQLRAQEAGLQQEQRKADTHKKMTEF
B2: Isoform 1 of Cyclin-dependent kinase 2-interacting protein (Homo sapiens), Q9BW66-1 (parent)
chain: MEAKTLGTVTPRKPVLSVSARKIKDNAADWHNLILKWETLNDAGFTTANNIANLKISLLNKDKIELDSSSPASKENEEKVCLEYNEELEKLCEELQATLDGLTKIQVKMEKLSSTTKGICELENYHYGEESKRPPLFHTWPTTHFYEVSHKLLEMYRKELLLKRTVAKELAHTGDPDLTLSYLSMWLHQPYVESDSRLHLESMLLETGHRAL
partner: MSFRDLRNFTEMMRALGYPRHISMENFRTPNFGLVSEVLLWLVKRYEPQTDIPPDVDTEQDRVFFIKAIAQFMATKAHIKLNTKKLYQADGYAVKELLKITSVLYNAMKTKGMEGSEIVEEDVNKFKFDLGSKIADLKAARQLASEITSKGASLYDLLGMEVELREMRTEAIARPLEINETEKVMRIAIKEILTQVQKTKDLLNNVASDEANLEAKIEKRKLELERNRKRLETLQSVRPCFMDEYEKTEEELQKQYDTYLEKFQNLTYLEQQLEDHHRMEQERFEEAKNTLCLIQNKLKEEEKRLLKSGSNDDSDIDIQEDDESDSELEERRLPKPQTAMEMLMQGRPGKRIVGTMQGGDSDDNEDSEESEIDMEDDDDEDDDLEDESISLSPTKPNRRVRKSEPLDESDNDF
B3: Cytochrome b-245 chaperone 1 (Homo sapiens), Q9BQA9 (parent)
chain: MYLQVETRTSSRLHLKRAPGIRSWSLLVGILSIGLAAAYYSGDSLGWKLFYVTGCLFVAVQNLEDWEEAIFDKSTGKVVLKTFSLYKKLLTLFRAGHDQVVVLLHDVRDVSVEEEKVRYFGKGYMVVLRLATGFSHPLTQSAVMGHRSDVEAIAKLITSFLELHCLESPTELSQSSDSEAGDPASQS
partner: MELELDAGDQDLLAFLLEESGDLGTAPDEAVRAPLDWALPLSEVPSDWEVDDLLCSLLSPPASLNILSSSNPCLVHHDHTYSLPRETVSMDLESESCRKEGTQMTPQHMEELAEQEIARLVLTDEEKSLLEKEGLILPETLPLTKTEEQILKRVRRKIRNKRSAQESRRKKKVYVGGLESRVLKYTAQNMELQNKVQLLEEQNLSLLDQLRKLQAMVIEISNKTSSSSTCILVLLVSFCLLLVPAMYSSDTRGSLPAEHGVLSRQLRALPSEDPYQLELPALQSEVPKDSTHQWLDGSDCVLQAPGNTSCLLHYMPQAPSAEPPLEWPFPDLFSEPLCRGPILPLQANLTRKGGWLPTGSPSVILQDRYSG
B4: Syntenin-2 (Homo sapiens), Q9H190 (parent)
chain: MSSLYPSLEDLKVDQAIQAQVRASPKMPALPVQATAISPPPVLYPNLAELENYMGLSLSSQEVQESLLQIPEGDSTAVSGPGPGQMVAPVTGYSLGVRRAEIKPGVREIHLCKDERGKTGLRLRKVDQGLFVQLVQANTPASLVGLRFGDQLLQIDGRDCAGWSSHKAHQVVKKASGDKIVVVVRDRPFQRTVTMHKDSMGHVGFVIKKGKIVSLVKGSSAARNGLLTNHYVCEVDGQNVIGLKDKKIMEILATAGNVVTLTIIPSVIYEHMVKKLPPVLLHHTMDHSIPDA
partner: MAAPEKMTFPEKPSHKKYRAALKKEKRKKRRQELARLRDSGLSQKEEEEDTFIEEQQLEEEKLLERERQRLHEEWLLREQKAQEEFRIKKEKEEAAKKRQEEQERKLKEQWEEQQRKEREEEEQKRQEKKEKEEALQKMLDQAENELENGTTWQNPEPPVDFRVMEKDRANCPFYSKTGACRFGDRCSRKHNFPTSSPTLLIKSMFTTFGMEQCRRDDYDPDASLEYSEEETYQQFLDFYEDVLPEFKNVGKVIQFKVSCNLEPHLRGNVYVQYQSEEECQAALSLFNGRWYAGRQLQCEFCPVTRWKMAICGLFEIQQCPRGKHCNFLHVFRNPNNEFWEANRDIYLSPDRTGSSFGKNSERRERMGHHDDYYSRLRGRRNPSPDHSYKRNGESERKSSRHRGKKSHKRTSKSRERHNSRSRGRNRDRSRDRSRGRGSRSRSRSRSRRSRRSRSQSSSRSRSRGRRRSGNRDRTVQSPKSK

Here are results for five variants from IntAct's records for PubMed 31515488.

The variants in the first assay derive from B1. The following applies: with zgpat_human ZGPAT.
On to L12H, for which the “effect of a mutation on the interaction” value is “disrupting interaction strength”.

Variants of B2 are the subject of a further assay. The following applies: with clua1_human CLUAP1, Q96AJ1.
Take D177N: the “effect of a mutation on the interaction” value is “with no effect”.

The variants in a further assay derive from B2. The note with it: with clua1_human CLUAP1, Q96AJ1. The source holds these as a separate data set.
R164H: the “effect of a mutation on the interaction” value is given as “disrupting interaction strength”.

In the next assay the parent is B3. The following applies: with creb3_human CREB3, O43889.
Consider R129W, for which the “effect of a mutation on the interaction” value is on record as “with no effect”.

The variants in another assay derive from B4. The note with it: with ZRSR2, Q15696.
For G225R, the “effect of a mutation on the interaction” value is given as “disrupting interaction strength”.
